Assay: soluble on expression in E. coli; label from the status in PepcDB or PDB records

Sequence | soluble on expression in E. coli
MPPGKCLFSGVFCNMAEKQTAKRNRREEILQSLALMLESSDGSQRITTAKLAASVGVSEAALYRHFPSKTRMFDSLIEFIEDSLITRINLILKDEKDTTARLRLIVLLLLGFGERNPGLTRILTGHALMFEQDRLQGRINQLFERIEAQLRQVLREKRMREGEGYTTDETLLASQILAFCEGMLSRFVRSEFKYRPTDDFDARWPLIAAQLQ | not soluble
MSLQQYEILLDSGTNELEIVKFGVGENAFGINVMKVREIIQPVEVTSVPHSHQHVEGMIKLRGEILPVISLFSFFGVEPEGSKDEKYIVTEFNKRKIVFHVGSVSQIHRVSWEAIEKPTSLNQGMERHLTGIIKLEDLMIFLPDYEKIIYDIESDSGVDTYNMHTEGFDERRTDKKLIIVEDSPLLMRLLQDELKEAGYNNIASFENGKEAYEYIMNLAENETDLSKQIDMIITDIEMPKMDGHRLTKLLKENPKSSDVPVMIFSSLITDDLRHRGEVVGADEQISKPEISDLIKKVDTYVIEGHHHHHH | soluble
MGSDKIHHHHHHMDMIVTSKKSSRNANSGCAIHCNDCSMSELCIPFTLNANELEELDNIIERKKPVQKGDKLFQSGDGLKSLYAIRSGTIKSYTITQQGDEQITGFHLAGDVIGFDAIHKQAHQSFAEALETSMICEIPFDTLDSLAGTMPKLRQQIMRLMSHEIISDQEMILLLSKKNAEERLAAFIAKLANRFANRGFSPNEFRLSMTRGDIGNYLGLTVETISRLLGRFQKAQMIAVNGKYITIVDHQALNTLADHTEQ | not soluble
MISRVGADLGLSATAHVPRTDEPQKAKDFTTDQEVRWCPGCGDYVILATIRSFLPELGLRRENLMFVSGIGCSSRFPYYLDTYGLHSIHGRAPAIATGLAVTRPDLSVWVVTGDGDALSIGGNHLIHALRRNVNMTILLFNNRIYGLTKGQYSPTSEVGKVTKSTPLGSVDHPFNTLSLALGAEATFAARAMDSDRKGLTEVLRQAAAHRGTSFVEIYQDCPIFNDGSFDVLRKDGSEQRLIPLTHGEPIVFGGAGEYCVVRSGFGLKVVATADVDRDDIVVHDAHTDDPDYAYALSRLSDQDLTHTVTGVFRSVTRDTYDDMVRLQNEIAQEKDPVDDGSLQRLLTGHDTWTVE | not soluble
MGSDKIHHHHHHMANSIPSGGNAFALPFAGSRHQFISATCTPDTFSDCLSQSLPPSSNEQAPLGVLRLVVAVSNQKQIGTVLEQLTKDFQALLSRAEVVVQPPFSGQVQISAWLVDTAAIADAPAVIGSPAALQWLFSASNAHALDDTQVSPAFSRQFYDGLESAHAQGHMPDDLLRTWIYIGGITQGPHDETRYQRVNAARQDAFREVSIGMGALCSPFPASTGIGTHGSSLTLGMLSCKIRSGMRVVALENRRQTSAFQYPKEESLIAPLFSRAVAILGDAQAMVFVSGTASIIGAKSVHVGNIEQQTRQTLENINNLLSARLLSDYDCYPATSGLESIVSYTVYIKRREDITVVRAVCAALLPERAVATFVQADVCRTELLVEIEAVAVMPE | not soluble
MGSDKIHHHHHHMNPKMIRSLKAFTRTVELNSMSAAANELHMTVSAISQQLQRLENDNGISLFHRNTRSLSLTEAGQVFYQSCLDMLAIAAKNQERWDQLTNQPQGQIKIIAPVGFGGGLLSEPLKQLQHEFANVSFQLHMTDEPIDLITAGADLAIRIGPLADSTLYARHLADWHMVPCIAAEHPAAENSIKSFDDLPEGCFIGHIPSLPNKDFPKPKVLLNNMQTVVQLTLDGVGYALLPQPEIKHYIESGRLLRLLPEWEGSPYSVHAVLPIKDNIPAKTERTIEVLSHFFHRL | not soluble
SNAMSTHVTFDYSKALSFIGEHEITYLRDAVKVTHHAIHEKTGAGNDFLGWVDLPLQYDKEEFARIQKCAEKIKNDSDILLVVGIGGSYLGARAAIEMLNHSFYNTLSKEQRKTPQVLFVGQNISSTYMKDLMDVLEGKDFSINVISKSGTTTEPALAFRIFRKLLEEKYGKEEARKRIYATTDKARGALKTLADNEGYETFVIPDDVGGRFSVLTPVGLLPIAVSGLNIEEMMKGAAAGRDDFGTSELEENPAYQYAVVRNALYNKGKTIEMLINYEPALQYFAEWWKQLFGESEGKDQKGIFPSSANFSTDLHSLGQYVQEGRRDLFETVLKVGKSTHELTIESEENDLDGLNYLAGETVDFVNTKAYEGTLLAHSDGGVPNLIVNIPELNEYTFGYLVYFFEKACAMSGYLLGVNPFDQPGVEAYKKNMFALLGKPGFEELKAELEERLK | soluble
MDRIVEIEKYSFDETYETSLRPSNFDGYIGQESIKKNLNVFIAAAKKRNECLDHILFSGPAGLGKTTLANIISYEMSANIKTTAAPMIEKSGDLAAILTNLSEGDILFIDEIHRLSPAIEEVLYPAMEDYRLDIIIGSGPAAQTIKIDLPKFTLIGATTRAGMLSNPLRDRFGMQFRLEFYKDSELALILQKAALKLNKTCEEKAALEIAKRSRSTPRIALRLLKRVRDFADVNDEEIITEKRANEALNSLGVNELGFDAMDLRYLELLTAAKQKPIGLASIAAALSEDENTIEDVIEPYLLANGYIERTAKGRIASAKSYSALKLNYEKTLFEE | not soluble
MKITAVETLYCNAGWRNLSFLKISTDEGLVGWAEFPENHINNVLSPLVRHMGQQILGEDPRRIHPVIDRLRRAAWGVPFGAVSRAIGAIENALVDIKAKAIGVPAYELIGGRMRDDIRMYWSHCGSYHVTNWKDLGVPRITSLDDVKSLGRQVRESGYHALKTNLMMFDRPEPYMYRPGFAGGSGDPDRNPLRSAISAAVDQMTAFREGAGPDIGLKLDVNFNFRPEGYIRLAHALEPVDLDWLEIDNFDAKAVAQVRRASRIPIASCETLSGRRQLRPYLEEQAVDVVIIDVPWNGIYEAMRMAALADSFEVNVATHNFCGPIATLISAHFCAAVPNFRVMEMDVVQVPWTNDLITNPPTIERGYMRLPDGPGWGADVNEEALRAHPPVAAKH | not soluble
MQPSHPSQPSHADRAAPTSALAPVVPPVLAEVVRSGFVEGRHRGSLVVLGADGAVELALGEVTAPVFPRSSNKPMQAAGVLRAGLDLAGERLALAAASHSGEPFHRDLVRKMLDEYGLDPALLQCPPDLPLDAEERETYLASGAEPDRVTMNCSGKHTAMLAVCAQQGWPLETYLDPEHPLQRVIHRVVEDAAGEPVAAVGTDGCGAPLMAISLVGLARAFRSFVAAEPGSAERRVADAMRAHPEYVAGSRRADTWLMREVPGSLSKMGAEAVQAVALPDGRALAFKIEDGATRALGPVLARALTLLGVDAPVVGRIGRAPLLGGGREVGEIRASFLEHHHHHH | not soluble
MGHHHHHHSHMIDILDVKSRATIQDLGRFGLRRFGISHCGAMDKLALRAGNILLGNAENVPAIEVPLGGITLQFQQDMNFCVTGAFYEMMLDDKPVFAYWRYQVRAGQILKMARAKIGMYGYLCVQGGFVLPQALNSCSTDLRAQIGGIEGRCLQAGDQLQTANDHILRSEIGIAPIPLRDVIRALPSSEYQAFKRKSQYYWWRNEWTLQSNSDRMGYRFQGQTLELKQPLEMLSHAIQFGSVQVPPSGQPIILMADAQTTGGYPKIANVIDADLGALAQVRLGSTIKFEAVSLQEAAKLRRKNEIYLDQIRRIVDEKN | not soluble
AHHHHHHGSNYRYPPRYGPEWGSGGIYGLRFHNGTLYFTLAFEGEAHFITEDSHKIYEFELVGPRPTSGGDTYNAVEVVDEYIYFGGWVHAPAKYRGKGEGKATIDFSNKYSHVHEYDTENQEVRLVWKESIHHPSEWAGEVSDIIYNPYTDELLLAREDGHTNLGVYSLSRNGRIRLLNDKPSAKGCQMHDLAFFGIGKNYRKGLEEIHALDMITERWEVFPLGESLDGGKYIQPHLGGNGVSVNNRVFAFVRGGVFVGNPHNDEQFAFVRLFDFYTFYAPFRVNALPIGGGILVGFNAHHDAYYRPRTQEEMIYHRFTNTIPGPSVLVYFAPPMVKIVGVFGARITSIEKVDGKILVATNTTPNVGALDATPFDTGNKDIFVLPEKILQEKPPAVSFSVPLAFPSEGKRMGAGVFGGIPLDGYDNARLIIKASRDNRLKVYEYDLALPLRDADVEEFDIKKGRNVIDLRTFSGIVSFELESEDFSGVARIELW | not soluble
STTIYDLKKQKDKLLKFYAESDEQILMKNRKTLHKAKNEDLDRVLKEWIRQRRSEHMPLNGMLIMKQAKIYHNELKIEGNCEYSTGWLQKFKKRHGIKFLKTCGNKASAGHEATEKFTGKFSNDDEQDGNFEGFSMSSEKKIMSDLLTYTKNIHPETVSKLEEEDIKDVFNSNNEAPVVHSLSNGEVTKMVLNQDDHDDNDNEDDVNTAEKVPIDDMVKMCDGLIKGLEQHAFITEQEIMSVYKIKERLLRQKASLMRQMTLKETFKKAIQRNASSSLQDPLLGPSTASDASSHLKIK | soluble
MAHHHHHHMGTLEAQTQGPGSMALNSAVILAGCGHMDGSEIREAVLVMLELDRHNVNFKCFAPNKNQKQVVDHKKKESVGEVRNILVESARIARGSVYDIEQIRVEEFDMLVIPGGYGVAKNFSNLFDEDKENDYILPEFKNAVREFYNAKKPIGAVCISPAVVVALLKDIAKVKVTIGEDSNGLIDKMGGVHVDCPTIKSVKDDVNRIFSCSAYMRNDSLYNVYLGIQDMISSMVNYLKSK | soluble
MAEASIEKTQILQKYLELDQRGRIIAEYVWIDGTGNLRSKGRTLKKRITSIDQLPEWNFDGSSTNQAPGHDSDIYLKPVAYYPDPFRRGDNIVVLAACYNNDGTPNKFNHRHEAAKLFAAHKDEEIWFGLEQEYTLFDMYDDVYGWPKGGYPAPQGPYYCGVGAGKVYARDMIEAHYRACLYAGLEISGINAEVMPSQWEFQVGPCTGIDMGDQLWMARYFLHRVAEEFGIKISFHPKPLKGDWNGAGCHANVSTKEMRQPGGTKYIEQAIEKLSKRHAEHIKLYGSDNDMRLTGRHETASMTAFSSGVANRGSSIRIPRSVAKEGYGYFEDRRPASNIDPYLVTGIMCETVCGAIDNADMTKEFERESS | soluble
MSISASEARQRLFPLIEQVNTDHQPVRITSRAGDAVLMSADDYDAWQETVYLLRSPENARRLMEAVARDKAGHSAFTKSVDELREMAGGEE | soluble
MVIGQKVLLARIPKMGDNYSTYLLDIEGTVCPISFVKETLFPYFTNKVPQLVQQDTRDSPVSNILSQFHIDNKEQLQAHILELVAKDVKDPILKQLQGYVWAHGYESGQIKAPVYADAIDFIKRKKRVFIYSSGSVKAQKLLFGYVQDPNAPAHDSLDLNSYIDGYFDINTSGKKTETQSYANILRDIGAKASEVLFLSDNPLELDAAAGVGIATGLASRPGNAPVPDGQKYQVYKNFETL | not soluble
MARKAESSNRLDDAARAGWLYYVAGRTQDEIASVMGISRQSAQRLVSLAMAERLIKVRLDHPIAACLEMAARLKEKYDLKHVDVVPSDPGSDSTTVGIAEAGAAEIERWLKSAEPVVLAIGTGRTLKATIDQLPSMECPQHRIVSLTGNIRLDGSAAYYNVIFSMADTIKARHFPMPLPVLVSSPEEREVLHKQSLVQIALELGAEADAAFVGVGELGPDAPLCEDGFLARDEMARLMAAGAAGEICGWMFDHEGVLLPDSINERVASVPLPPRDRASVIGIAKGRRKHEALRAALKGRIINGLVTDEATADYLLRV | not soluble
MGSDKIHHHHHHMTAAAATTAGATGGASRRPADEAIAADARALSEQLKAMRDRLFAPTAMKTLRSFTSGEAAKLIGVSDGYLRQLSLAGEGPQPDTGAGGRRSYSLSDINALRRHLAEQAIAKGNGAKARGYLKWRDAARSEHLQVISVTNFKGGSGKTTSSVHLAQYLALTGHRVLAVDLDPQASLSALFGYQPELDLTGNDTLYGAIRYDAEARPLKDIIRKTYFDGLDLVPGNLELQEFEHTTPQALSARQSGADAGPLFFARVQAALASVADDYDVVVIDCPPQLGYLTLSALCASTSVIVTVHPQMLDVASMNQFLYMTSDLLSVVRDAGGELNFDFLRYLVTRFEPNDGPQAQIVGFMRSLFGDRVLTSAMVKSTAISDAGLTKQTLYEVGRENFTRATYDRAIESLNAVNGEIEALIHAAWGR | not soluble
